Here are results for one molecule from patent EP4785961A1 (Fortvita Biologics Inc., dated 2025).

Usually Kd stands for the equilibrium constant for the complex coming apart. In general, koff refers to a measure of how fast the partners let go of each other. The kon is the rate constant with which the complex forms.

In test [1] the target is T1, monkey HER3 (Sino Biological, 90043-K08H) (cynomolgus monkey, UniProt G7PIG5 20-643).
T1 construct: Bought antigen; also called Cynomolgus monkeys
As to the kind of experiment: BLI (Fortebio Octet Red96e), AHC sensors, HER3-MB3 and antigen each at 100 nM.

Test [2] concerns the target T2, human HER3 (Sino Biological, 10201-H08H) (human, UniProt P21860 20-643).
T2 construct: Bought antigen; also called ErbB3
Described as above.

Test [3] addresses T3, mouse HER3 (Sino Biological, 51003-M08H) (mouse, UniProt Q61526 20-641).
T3 construct: Bought antigen; also called Mice
The description is as above.

Test [4] addresses T4, rat HER3 (Sino Biological, 80111-R08H) (rat, UniProt Q62799 20-641).
T4 construct: Bought antigen
The description is as above.

The target in test [5] is HER3 expressed on tumor cell lines (NUGC4, HCC1569, NCI-H508, SW620, HCC827 HER3OX) (UniProt P21860 20-1342, limits assumed). The experiment in a line: cell-based or functional assay.

T3 sequence (Q61526 20-641 limits assumed, stated change not applied): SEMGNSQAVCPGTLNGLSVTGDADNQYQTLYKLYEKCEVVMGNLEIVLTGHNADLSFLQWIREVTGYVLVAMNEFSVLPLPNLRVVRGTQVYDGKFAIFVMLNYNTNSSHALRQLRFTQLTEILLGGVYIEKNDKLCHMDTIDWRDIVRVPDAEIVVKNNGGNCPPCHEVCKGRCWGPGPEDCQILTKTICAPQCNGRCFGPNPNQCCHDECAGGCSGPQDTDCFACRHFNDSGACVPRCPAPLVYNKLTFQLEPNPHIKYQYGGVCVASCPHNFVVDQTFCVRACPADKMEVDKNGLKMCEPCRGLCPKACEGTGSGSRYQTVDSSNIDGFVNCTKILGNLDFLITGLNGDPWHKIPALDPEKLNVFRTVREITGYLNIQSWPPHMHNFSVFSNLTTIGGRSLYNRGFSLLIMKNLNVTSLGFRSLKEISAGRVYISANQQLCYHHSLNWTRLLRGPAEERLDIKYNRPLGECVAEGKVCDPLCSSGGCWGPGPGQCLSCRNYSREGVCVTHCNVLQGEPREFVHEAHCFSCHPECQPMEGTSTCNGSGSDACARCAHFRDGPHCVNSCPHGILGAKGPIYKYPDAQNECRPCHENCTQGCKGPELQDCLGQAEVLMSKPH
T4 sequence (Q62799 20-641 limits assumed, stated change not applied): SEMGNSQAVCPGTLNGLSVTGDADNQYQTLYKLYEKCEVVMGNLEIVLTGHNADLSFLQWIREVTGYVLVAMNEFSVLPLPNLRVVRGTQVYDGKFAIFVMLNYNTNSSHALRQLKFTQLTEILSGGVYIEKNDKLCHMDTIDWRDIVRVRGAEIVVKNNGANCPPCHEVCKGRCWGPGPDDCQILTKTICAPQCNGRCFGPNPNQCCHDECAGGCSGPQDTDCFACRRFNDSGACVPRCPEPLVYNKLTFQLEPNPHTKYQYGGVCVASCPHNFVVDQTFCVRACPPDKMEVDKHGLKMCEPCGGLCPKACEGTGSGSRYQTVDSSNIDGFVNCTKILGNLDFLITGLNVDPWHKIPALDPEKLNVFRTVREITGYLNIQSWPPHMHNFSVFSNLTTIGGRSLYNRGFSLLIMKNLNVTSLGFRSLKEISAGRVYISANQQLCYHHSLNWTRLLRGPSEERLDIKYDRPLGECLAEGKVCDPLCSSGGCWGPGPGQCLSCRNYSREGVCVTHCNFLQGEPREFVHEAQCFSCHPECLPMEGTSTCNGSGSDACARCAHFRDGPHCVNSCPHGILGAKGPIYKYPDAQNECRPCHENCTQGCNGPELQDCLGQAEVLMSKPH
T1 sequence (G7PIG5 entry or part of it K08H K08H): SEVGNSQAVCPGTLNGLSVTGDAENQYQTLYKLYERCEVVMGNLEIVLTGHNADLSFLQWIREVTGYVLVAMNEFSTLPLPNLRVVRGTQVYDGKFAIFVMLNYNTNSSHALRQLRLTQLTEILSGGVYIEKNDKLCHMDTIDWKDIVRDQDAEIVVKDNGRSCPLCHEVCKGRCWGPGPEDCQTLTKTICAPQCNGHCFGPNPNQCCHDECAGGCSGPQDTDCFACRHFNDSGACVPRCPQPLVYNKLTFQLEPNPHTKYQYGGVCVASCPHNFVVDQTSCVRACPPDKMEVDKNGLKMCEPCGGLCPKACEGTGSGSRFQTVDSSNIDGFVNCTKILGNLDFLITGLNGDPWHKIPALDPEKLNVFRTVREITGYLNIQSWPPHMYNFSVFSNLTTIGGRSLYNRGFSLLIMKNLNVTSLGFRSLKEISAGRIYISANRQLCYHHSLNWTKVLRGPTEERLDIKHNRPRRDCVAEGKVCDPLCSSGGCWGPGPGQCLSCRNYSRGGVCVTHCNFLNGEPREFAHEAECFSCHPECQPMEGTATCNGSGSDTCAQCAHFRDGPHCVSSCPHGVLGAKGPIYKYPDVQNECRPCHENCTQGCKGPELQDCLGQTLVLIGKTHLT

B1: HER3-MB3 (patritumab-MB3) antibody-drug conjugate (antibody, human IgG1, kappa, V domains shown)
VH: QVQLQQWGAGLLKPSETLSLTCAVYGGSFSGYYWSWIRQPPGKGLEWIGEINHSGSTNYNPSLKSRVTISVETSKNQFSLKLSSVTAADTAVYYCARDKWTWYFDLWGRGTLVTVSS
VL: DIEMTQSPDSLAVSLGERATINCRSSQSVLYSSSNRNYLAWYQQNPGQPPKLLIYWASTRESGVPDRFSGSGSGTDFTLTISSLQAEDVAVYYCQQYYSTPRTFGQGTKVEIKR
modifications: drug-linker MB3 (payload MB1) conjugated to cysteines after TCEP reduction; conjugated positions not given; drug-linker MB3 (payload MB1) conjugated to cysteines after TCEP reduction; n mainly 8, average DAR 7.56; conjugated positions not given
notes: Antibody-drug conjugate; also called HER3-ADC
Regarding B1, in test [1], binding was characterised by a dissociation constant (Kd) of 2.55 nM, the koff turned out to be 0.000562 s⁻¹ and the association rate constant (kon) was 221000 M⁻¹ s⁻¹. Besides, in test [2], the Kd stood at 2.42 nM, the koff amounted to 0.000463 s⁻¹ and the kon is 191000 M⁻¹ s⁻¹. Further, in test [3], binding was put at a Kd of 45.8 nM, the koff worked out at 0.00989 s⁻¹ and the kon was determined as 216000 M⁻¹ s⁻¹. For the same molecule, in test [4], the Kd worked out at 38.8 nM, the koff came to 0.00615 s⁻¹ and the kon was 158000 M⁻¹ s⁻¹. Further, in test [5], the “IC50 of in vitro killing, HCC1569 tumor cell line (3D culture, 7 days, Cell-Titer)” value is 0.07 nM and the “IC50 of in vitro killing, NUGC4 tumor cell line (3D culture, 7 days, Cell-Titer)” value turned out to be 0.55 nM.
